In paper PMC6969166, “The molecular basis of pyrazinamide activity on Mycobacterium tuberculosis PanD” (Nature Communications, 2020):

Molecular target: the molecule itself
Experiment: crystal structure

B1: Mycobacterium tuberculosis PanD (aspartate decarboxylase), wild type, processed active enzyme (enzyme)
chain 1: MLRTMLKSKIHRATVTCADLHYVG
chain 2: SVTIDADLMDAADLLEGEQVTIVDIDNGARLVTYAITGERGSGVIGINGAAAHLVHPGDLVILIAYATMDDARARTYQPRIVFVDAYNKPIDMGHDPAFVPENAGELLDPRLGVG
notes: also called Mtb PanD; Rv3601c; copies: 4 + 4
stoichiometry N: 4
